Measurements from patent US6051381, “Prokaryotic two-hybrid system” (dated 2000).

What was measured:
E6-LexA (E. coli; HPV) [1] = molecular target: E6-LexA (E. coli; HPV) (UniProt P0A7C2); experiment: E. coli two-hybrid, lacZ repression; 0.5 mM IPTG, 50 ng/ml anhydrotetracycline; reporter P3IHFLexAimpX
[2] = molecular target: Jun-LexADNA (mouse; E. coli) (UniProt P05627); experiment: E. coli two-hybrid, lacZ repression; reporter construct P3IHFLexAOpX
[3] = molecular target: Jun-LexADNA (mouse; E. coli) (UniProt P05627); experiment: E. coli two-hybrid, lacZ repression; reporter construct P3IHFLexAOpmH
[4] = molecular target: Jun-LexADNA (mouse; E. coli) (UniProt P05627); experiment: E. coli two-hybrid, lacZ repression; reporter construct P3IHFLexAOpH
[5] = molecular target: Jun-LexADNA (mouse; E. coli) (UniProt P05627); experiment: E. coli two-hybrid, lacZ repression; reporter construct P3
[6] = molecular target: Jun-LexADNA (mouse; E. coli) (UniProt P05627); experiment: E. coli two-hybrid, lacZ repression; reporter construct P3LexAOpH
[7] = molecular target: Jun-LexADNA (mouse; E. coli) (UniProt P05627); experiment: E. coli two-hybrid, lacZ repression; reporter construct P3LexAOpX
[8] = molecular target: Fos-LexA (E. coli; mouse) (UniProt P01101); experiment: E. coli two-hybrid, lacZ repression; reporter plasmid P3IHFLexAOpimpX
zip-LexADNA (E. coli) [9] = experiment: E. coli two-hybrid, lacZ repression; reporter construct P3IHFLexAOpH
zip-LexADNA (E. coli) [10] = experiment: E. coli two-hybrid, lacZ repression; reporter construct P3
zip-LexADNA (E. coli) [11] = experiment: E. coli two-hybrid, lacZ repression; reporter construct P3IHFLexAOpX
zip-LexADNA (E. coli) [12] = experiment: E. coli two-hybrid, lacZ repression; reporter construct P3IHFLexAOpmH
zip-LexADNA (E. coli) [13] = experiment: E. coli two-hybrid, lacZ repression; reporter construct P3LexAOpX
zip-LexADNA (E. coli) [14] = experiment: E. coli two-hybrid, lacZ repression; reporter construct P3LexAOpH
wild-type AraC = molecular target: T1, wild-type AraC (E. coli, UniProt P0A9E0); experiment: E. coli two-hybrid, lacZ repression, reporter P3IHFLexAOpimpX
T1 sequence: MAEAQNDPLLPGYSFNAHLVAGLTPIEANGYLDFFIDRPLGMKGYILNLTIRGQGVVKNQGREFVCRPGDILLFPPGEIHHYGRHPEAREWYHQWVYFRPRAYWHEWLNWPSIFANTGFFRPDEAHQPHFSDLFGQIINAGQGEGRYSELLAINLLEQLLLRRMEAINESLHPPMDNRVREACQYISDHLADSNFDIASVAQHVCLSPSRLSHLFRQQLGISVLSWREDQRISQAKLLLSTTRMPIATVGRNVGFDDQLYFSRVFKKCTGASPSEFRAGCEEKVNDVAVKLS

E6-LexA (E. coli; HPV) [15] = molecular target: E6-LexA (E. coli; HPV) (UniProt P0A7C2); experiment: E. coli two-hybrid, lacZ repression; non-interacting control pair; reporter P3IHFLexAimpX

## E6AP-AraCDNA (from UniProt Q05086)
E6-LexA (E. coli; HPV) [1]
  repression ratio: > 30 fold

## AraCDNA
[2]
  repression ratio: 1.1
[3]
  repression ratio: 1.09

## Fos-AraCDNA (from UniProt P01101)
[4]
  repression ratio: 1.9
[2]
  repression ratio: 4.2
[5]
  repression ratio: 1.1
[6]
  repression ratio: 2
[7]
  repression ratio: 2.3

## Jun-AraC (from UniProt P05627)
[8]
  repression ratio: 11 fold

B1: wild-type AraC (protein)
chain: T1 sequence
zip-LexADNA (E. coli) [9]
  repression ratio: 1
zip-LexADNA (E. coli) [10]
  repression ratio: 1.2
zip-LexADNA (E. coli) [11]
  repression ratio: 1.2
zip-LexADNA (E. coli) [12]
  repression ratio: 1.06
zip-LexADNA (E. coli) [13]
  repression ratio: 1.2
zip-LexADNA (E. coli) [14]
  repression ratio: 1.1

B2: Fos-LexA (other)
chain: RGKVEQLSPEEEEKRRIRRERNKMAAAKCRNRRRELTDTLQAETDQLEDEKSALQTEIANLLKEKEKLEFILAAHRPACKIPDDLGFPEEMSV
wild-type AraC
  binding result: no binding

B3: AraCDNA (protein)
chain: ESLHPPMDNRVREACQYISDHLADSNFDIASVAQHVCLSPSRLSHLFRQQLGISVLSWREDQRISQAKLLLSTTRMPIATVGRNVGFDDQLYFSRVFKKCTGASPSEFRAGCEEKVNDVAVKLS
zip-LexADNA (E. coli) [9]
  repression ratio: 1.1
zip-LexADNA (E. coli) [10]
  repression ratio: 1.2
zip-LexADNA (E. coli) [11]
  repression ratio: 1.2
E6-LexA (E. coli; HPV) [15]
  repression ratio: 1.5
zip-LexADNA (E. coli) [12]
  repression ratio: 0.9
zip-LexADNA (E. coli) [13]
  repression ratio: 1.1
zip-LexADNA (E. coli) [14]
  repression ratio: 1
